From IntAct's records for PubMed 24144979

B1: Zinc finger protein RFP (Homo sapiens), P14373 (parent)
chain: MASGSVAECLQQETTCPVCLQYFAEPMMLDCGHNICCACLARCWGTAETNVSCPQCRETFPQRHMRPNRHLANVTQLVKQLRTERPSGPGGEMGVCEKHREPLKLYCEEDQMPICVVCDRSREHRGHSVLPLEEAVEGFKEQIQNQLDHLKRVKDLKKRRRAQGEQARAELLSLTQMEREKIVWEFEQLYHSLKEHEYRLLARLEELDLAIYNSINGAITQFSCNISHLSSLIAQLEEKQQQPTRELLQDIGDTLSRAERIRIPEPWITPPDLQEKIHIFAQKCLFLTESLKQFTEKMQSDMEKIQELREAQLYSVDVTLDPDTAYPSLILSDNLRQVRYSYLQQDLPDNPERFNLFPCVLGSPCFIAGRHYWEVEVGDKAKWTIGVCEDSVCRKGGVTSAPQNGFWAVSLWYGKEYWALTSPMTALPLRTPLQRVGIFLDYDAGEVSFYNVTERCHTFTFSHATFCGPVRPYFSLSYSGGKSAAPLIICPMSGIDGFSGHVGNHGHSMETSP

Variants of: B1
Settings: with ubp7_human USP7, Q93009
Chain of ubp7_human USP7, Q93009 (Q93009 whole entry, looked up): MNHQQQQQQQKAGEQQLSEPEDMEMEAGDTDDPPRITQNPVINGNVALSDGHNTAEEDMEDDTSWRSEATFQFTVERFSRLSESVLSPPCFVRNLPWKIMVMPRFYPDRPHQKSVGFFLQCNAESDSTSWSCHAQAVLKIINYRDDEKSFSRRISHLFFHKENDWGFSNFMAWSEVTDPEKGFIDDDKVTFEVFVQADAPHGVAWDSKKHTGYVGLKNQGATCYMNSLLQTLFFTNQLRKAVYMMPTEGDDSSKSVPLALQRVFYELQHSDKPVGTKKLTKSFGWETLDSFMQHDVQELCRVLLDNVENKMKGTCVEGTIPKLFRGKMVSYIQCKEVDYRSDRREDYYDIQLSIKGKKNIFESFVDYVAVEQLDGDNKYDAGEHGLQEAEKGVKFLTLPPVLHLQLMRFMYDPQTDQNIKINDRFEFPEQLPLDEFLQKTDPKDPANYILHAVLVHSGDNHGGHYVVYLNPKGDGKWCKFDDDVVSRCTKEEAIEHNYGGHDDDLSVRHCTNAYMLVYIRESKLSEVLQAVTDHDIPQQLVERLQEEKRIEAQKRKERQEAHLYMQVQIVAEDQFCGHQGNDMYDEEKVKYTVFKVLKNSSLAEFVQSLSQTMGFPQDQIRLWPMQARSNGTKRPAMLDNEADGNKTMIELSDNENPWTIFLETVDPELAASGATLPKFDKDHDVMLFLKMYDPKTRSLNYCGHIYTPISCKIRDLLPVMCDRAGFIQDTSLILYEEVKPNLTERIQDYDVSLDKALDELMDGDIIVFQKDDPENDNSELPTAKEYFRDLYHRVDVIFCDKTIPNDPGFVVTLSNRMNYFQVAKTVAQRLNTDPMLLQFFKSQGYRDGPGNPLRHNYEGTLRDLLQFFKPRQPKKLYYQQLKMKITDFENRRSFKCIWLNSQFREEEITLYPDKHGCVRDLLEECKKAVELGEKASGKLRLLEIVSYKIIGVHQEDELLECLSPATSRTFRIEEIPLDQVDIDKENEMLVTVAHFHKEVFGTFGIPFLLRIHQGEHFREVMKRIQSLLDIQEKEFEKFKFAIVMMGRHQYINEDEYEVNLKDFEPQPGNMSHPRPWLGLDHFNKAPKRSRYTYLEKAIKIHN

| effect of a mutation on the interaction | Variant |
| --- | --- |
| with no effect | C96A;H99A |
| with no effect | C118A;H124A |
| decreasing interaction strength | K79R;K304R;K380R;K382R |

Variants of: B1
Settings: with ubp7_human USP7, Q93009
Remark: another data set of the same source

| effect of a mutation on the interaction | Variant |
| --- | --- |
| disrupting interaction strength | K79R;K304R;K380R;K382R |
